The results in this text go back to patent publication US10729745B2, “Use of La1-like peptide isolated from maurus palmatus venom as an activator of sperm motility in mammals” (IMV Technologies, priority 2016, dated 2020).

What all share (type): cell-based
The test system of data set [1] is testicular sperm from macaca. Briefly: Motility activation in testicular sperm from Macaca (CASA). The following applies: non-human primate testicular sperm, FIGS. 3 and 4. On the procedure: FIG. 3: Measurement of motile cells and progressive cells after incubation of testicular sperm from macaca (non-human primate) with (7.8 Kda peptide) and without (Control) peptide SEQ ID NO. 1. Motile sperm and progressive sperm were characterized by VAP>1 μm/s and VAP>30 μm/s and STR>70%, respectively. STR=VSL/VAP. Statistical analyses were performed with SigmaPlot. t tests were used to compare the effects of La1-like peptide on sperm motility parameters. Data represent mean±SEM. Statistical tests with a 2-tailed P values 0.05 were considered significant. […]
After 10 minutes incubation with the peptide according to SEQ ID NO. 1 (natural, or synthesized), the sperm suspension was immediately placed onto an analysis chamber (Leja Products B.V., Netherlands) of 100 μm depth for mouse sperm and 20 μm depth for human, NHP and bovine sperm, and kept at 37° C. for microscopic quantitative study of sperm movement. Sperm motility parameters were measured at 37° C. using a sperm analyzer (Hamilton Thorn Research, Beverley). […] The motility parameters measured were curvilinear velocity (VCL) and amplitude of lateral head displacement (ALH). A minimum of 100 motile spermatozoa was analyzed for each assay. […]
Macaca testes were collected after euthanasia. […] 1, sperm motility was measured using the same conditions as those in Example 2.

Data set [2] concerns sperm. Briefly: Toxicity on sperm (sperm vitality). The protocol: Forty μL of sperm were mixed with 20 μL of eosin 1% diluted in NaCl 9/1000 and 20 μL of nigrosine 10% diluted in NaCl 9/1000. Sperm were then layered onto glass slide and dried. A minimum of 100 spermatozoa was analyzed for each assay.
The next data set has as its system human sperm. Nature of the data set: Velocity test on human spermatozoa treated with the peptide (computer-assisted motility analysis, CASA). The source says:
(§1) Human sperm were obtained from patient consulting at the fertility department of Grenoble, following approval by the ethical committee and informed consent from the patients. All patients gave an informed consent for the conservation of the remnant sperm in the Germetheque biobank and their use in studies on human fertility in accordance with the Helsinki Declaration of 1975 on human experimentation. The Germetheque Scientific Committee approved the present study design. Ejaculate was liquefied at 37° C. for 30 min and sperm were washed twice in Sperm Preparation Medium (Origio, Målov, Denmark) at 500 g for 5 min. Concentration is then adjusted for CASA analysis. Sperm were also frozen with SpermFreeze (Fertipro NV, Beernem, Belgium) for further analysis as frozen sperm.
(§2) After 10 minutes incubation with the peptide according to SEQ ID NO. 1 (natural, or synthesized), the sperm suspension was immediately placed onto an analysis chamber (Leja Products B.V., Netherlands) of 100 μm depth for mouse sperm and 20 μm depth for human, NHP and bovine sperm, and kept at 37° C. for microscopic quantitative study of sperm movement. Sperm motility parameters were measured at 37° C. using a sperm analyzer (Hamilton Thorn Research, Beverley). The settings employed for analysis were as follows for human, NHP, bovine and mouse respectively: acquisition rate (60;60;60;60) Hz; number of frames: (30;20;30;45); minimum contrast: (80;80;80;50); minimum cell size: (3;4;5;5); low static-size gate: (0,85;0,79;0,1;0,3); high static-size gate: (4,24;2,52;3,4;1,95); low static-intensity gate: (0,39;0,62;0,3;0,5); high static-intensity gate: (1,4;1,4;1,7;1,3); minimum elongation gate: (0;2;8;0); maximum elongation gate: (85;50;97;87); magnification factor: (1,89;1,89;1,89;0,7). The motility parameters measured were curvilinear velocity (VCL) and amplitude of lateral head displacement (ALH). A minimum of 100 motile spermatozoa was analyzed for each assay. Motile sperm were defined by VAP>(1;1;1;1) and progressive sperm were defined by VAP>(25;25;50;30) and STR>(80;80;70;70).

In data set [3] the test system is mouse oocytes and capacitated sperm. Nature of the data set: Fertilization study in mice (in vitro fertilization, 2-cell embryos scored). The protocol: Eggs were collected from mature OF1 females, synchronized with 5 units of pregnant mare serum gonadotrophin (PMSG) and 5 units of human chorionic gonadotrophin (hCG). Sperm were capacitated for 55 minutes in M16 2% BSA (37° C., 5% CO2) and introduced into droplets containing oocytes. The active peptide was introduced into droplets at the same time. Oocytes were incubated with 1.5×10^5 to 5×10^5 capacitated sperm/ml (37° C., 5% CO2) in M16 medium and unbound sperm were washed away after 4 hours incubation. Twenty-four hours after fertilization, the different stages, i.e. unfertilized oocytes (including aborted embryos and corresponding to fragmented oocytes or oocytes blocked after the extrusion of the second polar body) and 2-cell embryos (as an indication of successful fertilization) were scored.

In the next data set the test system is human ejaculated sperm. Nature of the data set: Motility of fresh and frozen human ejaculated sperm incubated with the peptide (Example 5, FIG. 5). The protocol: FIG. 5: Measurement of % motile cells and progressive cells after incubation of fresh (left hand panel) and frozen (right hand panel) human ejaculated sperm with (7.8 kDa peptide) or without (Control) the peptide according to SEQ ID NO. 1. Motile sperm and progressive sperm were characterized by VAP>1 μm/s and VAP>30 μm/s and STR>70%, respectively. STR=VSL/VAP. Statistical analyses were performed with SigmaPlot. t tests were used to compare the effects of La1-like peptide on sperm motility parameters. Data represent mean±SEM. Statistical tests with a 2-tailed P values≤0.05 were considered significant.
as §1, §2

Data set [4] concerns sperm. Nature of the data set: Sperm motility tests by the applicants (comparison with papaverine, duration of effect, synthetic versus venom peptide).
Where [5] appears, read: fresh human sperm samples, FIG. 5 left-hand panel.
Where [6] appears, read: frozen human sperm samples, FIG. 5 right-hand panel.

B1: La-1-like peptide (peptide)
chain: SGESCKAGKFTVLVGHQQNDKSTCTLYKCLNFKRKYALQISSCADVDLKSGCRQVPGAASANFPECCPMVICK
modifications: S Maurus palmatus
Take B1: in data set [1], the “non-progressive velocity of sperm cells” value is “increase” and the “progressive velocity of sperm cells” value was “increase”. The toxicity on sperm result in the data set with sperm [2] is listed as “no toxicity”. In addition, in the data set on human sperm (human sperm, incubation with peptide, FIG. 2B), the “sperm motility after incubation” value is on record as “increase in sperm motility”. Moreover, the “increase in lateral amplitude (ALH)” value with human sperm (initial lateral amplitude of less than 3.5 μm versus higher initial ALH values) is reported as “greater increases”. In addition, in the data set with human sperm (sperm having an initial VAP of 60 μm/s), the “increase in motility (VAP)” value is given as “about 20%”. The “increase in path velocity (VAP)” value with human sperm (sperm having low initial path velocity (VAP)) is “up to 80%”. For the same molecule, the “motility activation with respect to initial track speed (VCL)” value in the data set with human sperm (sperm with low initial track speed compared to higher initial track speeds, FIG. 2B upper left panel) was “higher motility activation”. Also, in data set [3], the toxicity entry is recorded as “not toxic”. For the same molecule, the “increase of rate of fertilization compared to the control” value in data set [3] (number of embryos at the two cell stage) was “approximately 20%”. Moreover, the embryo development result in data set [3] (two cell stage) is listed as “does not prevent embryo development”. In the data set with human ejaculated sperm (setting [5]), the non-progressive motility result is reported as “increases” and the progressive motility result is given as “increases”. Also, in the data set on human ejaculated sperm (setting [6]), the non-progressive motility entry is reported as “increases” and the progressive motility result is listed as “increases”. In addition, the “effect on motility, frozen samples versus fresh samples” value in the data set on human ejaculated sperm (human sperm) is “greater for the frozen samples”. The “duration of effect on sperm motility” value in the data set with sperm [4] is “long lasting effect”. The comparison with papaverine result with sperm [4] (compared to papaverine) is given as “superiority”. Besides, the “biological activity of synthesized peptide versus peptide isolated from venom” value in the data set on sperm [4] (peptide synthesized using Native Chemical Ligation Strategy) is “retains the biological activity”.
